Reference: patent US20240390506A1 (SUZHOU FUSE BIOSCIENCES, published 2024)
Where a chain is given by its changes, count along the chain named.

T1: human Fibroblast Activation Protein (FAP), soluble recombinant antigen (human, UniProt Q12884 26-760, biotinylated for BLI and panning (sites not given))
T1 construct: also called biotinylated FAP (Sino Biological); soluble FAP antigen
T1 sequence: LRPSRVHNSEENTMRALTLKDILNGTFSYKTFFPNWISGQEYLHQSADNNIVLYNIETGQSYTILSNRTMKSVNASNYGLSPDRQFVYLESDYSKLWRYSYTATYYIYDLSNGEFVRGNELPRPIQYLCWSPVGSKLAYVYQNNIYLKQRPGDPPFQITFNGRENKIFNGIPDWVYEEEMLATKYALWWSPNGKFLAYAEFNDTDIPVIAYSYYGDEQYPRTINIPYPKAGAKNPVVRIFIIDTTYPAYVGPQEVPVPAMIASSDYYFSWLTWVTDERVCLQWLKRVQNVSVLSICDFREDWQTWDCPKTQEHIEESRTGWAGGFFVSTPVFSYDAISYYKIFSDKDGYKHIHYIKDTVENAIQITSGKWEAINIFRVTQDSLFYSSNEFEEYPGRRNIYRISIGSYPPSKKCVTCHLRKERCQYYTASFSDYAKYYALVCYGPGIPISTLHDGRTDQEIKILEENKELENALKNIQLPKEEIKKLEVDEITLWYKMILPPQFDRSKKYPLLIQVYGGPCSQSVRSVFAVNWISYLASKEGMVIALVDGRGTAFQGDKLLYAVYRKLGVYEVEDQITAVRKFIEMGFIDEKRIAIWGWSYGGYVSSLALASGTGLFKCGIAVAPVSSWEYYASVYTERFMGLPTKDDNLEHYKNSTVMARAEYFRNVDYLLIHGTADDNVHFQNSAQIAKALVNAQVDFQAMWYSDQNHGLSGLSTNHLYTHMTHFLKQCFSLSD

B1: 872-5 (antibody, V domains shown)
VH: EVQLVESGGGLVQPGGSLRLSCAASGFTFRGYIMSWVRQAPGKGLEWVSWISPEGSRTGYADSVKGRFTISRDNSKNTLYLQMNSLRAEDTAVYYCARLQYGTWFDYWGQGTLVTVSS
VL: DIQMTQSPSSLSASVGDRVTITCRASQSISSYLNWYQQKPGKAPKLLIYAASSLQSGVPSRFSGSGSGTDFTLTISSLQPEDFATYYCQQATLLLPTFGQGTKVEIKR
B2: 872-59 (antibody, V domains shown)
VH: EVQLVESGGGLVQPGGSLRLSCAASGFTFTSYAMSWVRQAPGKGLEWVSSIYSWYGTTSYADSVKGRFTISRDNSKNTLYLQMNSLRAEDTAVYYCARTISYSQYAYGYSFDYWGQGTLVTVSS
VL: B1 VL with T92F, L93T, L94S, L95P, P96R
B3: 872-70 (antibody, V domains shown)
VH: EVQLVESGGGLVQPGGSLRLSCAASGFTFSRYSMSWVRQAPGKGLEWVSYITSTDGTTDYADSVKGRFTISRDNSKNTLYLQMNSLRAEDTAVYYCARSQYGRYYSPDYYFDYWGQGTLVTVSS
VL: B1 VL with A91S, T92R, L93T, L94S, L95P, P96Y

Target: T1, human Fibroblast Activation Protein …
Assay: BLI (Gator), biotinylated FAP on streptavidin sensor

Binder	Kd	koff	kon
B1	6.6 nM	0.0028 s⁻¹	420000 M⁻¹ s⁻¹
B2	15.5 nM	0.0056 s⁻¹	360000 M⁻¹ s⁻¹
B3	< 1 nM		110000 M⁻¹ s⁻¹
